Substrate in this series: CCC(CSC[C@@H](NC(=O)CC[C@H](N)C(=O)O)C(=O)NCC(=O)O)C(=O)c1ccc(OCC(=O)O)c(Cl)c1Cl
As to the kind of experiment: TP_TRANSPORTER: uptake in membrane vesicles from S1(MRP) cells. The class given is functional, cell membranes, Membrane vesicle.

B1: Multidrug resistance-associated protein 1 (Homo sapiens) (protein)
chain: MALRGFCSADGSDPLWDWNVTWNTSNPDFTKCFQNTVLVWVPCFYLWACFPFYFLYLSRHDRGYIQMTPLNKTKTALGFLLWIVCWADLFYSFWERSRGIFLAPVFLVSPTLLGITMLLATFLIQLERRKGVQSSGIMLTFWLVALVCALAILRSKIMTALKEDAQVDLFRDITFYVYFSLLLIQLVLSCFSDRSPLFSETIHDPNPCPESSASFLSRITFWWITGLIVRGYRQPLEGSDLWSLNKEDTSEQVVPVLVKNWKKECAKTRKQPVKVVYSSKDPAQPKESSKVDANEEVEALIVKSPQKEWNPSLFKVLYKTFGPYFLMSFFFKAIHDLMMFSGPQILKLLIKFVNDTKAPDWQGYFYTVLLFVTACLQTLVLHQYFHICFVSGMRIKTAVIGAVYRKALVITNSARKSSTVGEIVNLMSVDAQRFMDLATYINMIWSAPLQVILALYLLWLNLGPSVLAGVAVMVLMVPVNAVMAMKTKTYQVAHMKSKDNRIKLMNEILNGIKVLKLYAWELAFKDKVLAIRQEELKVLKKSAYLSAVGTFTWVCTPFLVALCTFAVYVTIDENNILDAQTAFVSLALFNILRFPLNILPMVISSIVQASVSLKRLRIFLSHEELEPDSIERRPVKDGGGTNSITVRNATFTWARSDPPTLNGITFSIPEGALVAVVGQVGCGKSSLLSALLAEMDKVEGHVAIKGSVAYVPQQAWIQNDSLRENILFGCQLEEPYYRSVIQACALLPDLEILPSGDRTEIGEKGVNLSGGQKQRVSLARAVYSNADIYLFDDPLSAVDAHVGKHIFENVIGPKGMLKNKTRILVTHSMSYLPQVDVIIVMSGGKISEMGSYQELLARDGAFAEFLRTYASTEQEQDAEENGVTGVSGPGKEAKQMENGMLVTDSAGKQLQRQLSSSSSYSGDISRHHNSTAELQKAEAKKEETWKLMEADKAQTGQVKLSVYWDYMKAIGLFISFLSIFLFMCNHVSALASNYWLSLWTDDPIVNGTQEHTKVRLSVYGALGISQGIAVFGYSMAVSIGGILASRCLHVDLLHSILRSPMSFFERTPSGNLVNRFSKELDTVDSMIPEVIKMFMGSLFNVIGACIVILLATPIAAIIIPPLGLIYFFVQRFYVASSRQLKRLESVSRSPVYSHFNETLLGVSVIRAFEEQERFIHQSDLKVDENQKAYYPSIVANRWLAVRLECVGNCIVLFAALFAVISRHSLSAGLVGLSVSYSLQVTTYLNWLVRMSSEMETNIVAVERLKEYSETEKEAPWQIQETAPPSSWPQVGRVEFRNYCLRYREDLDFVLRHINVTINGGEKVGIVGRTGAGKSSLTLGLFRINESAEGEIIIDGINIAKIGLHDLRFKITIIPQDPVLFSGSLRMNLDPFSQYSDEEVWTSLELAHLKDFVSALPDKLDHECAEGGENLSVGQRQLVCLARALLRKTKILVLDEATAAVDLETDDLIQSTIRTQFEDCTVLTIAHRLNTIMDYTRVIVLDKGEIQEYGAPSDLLQQRGLFYSMAKDAGLV
For orientation: Km means the substrate concentration at which the rate is half of its maximum. With B1, the Km stood at 5 µM.

The values above are taken from ChEMBL document CHEMBL2074303, “Transport of the glutathione conjugate of ethacrynic acid by the human multidrug resistance protein MRP” (FEBS Lett, 1996).
